Test results from publication doi:10.1101/2025.04.01.646186 (bioRxiv, 2025).

Target: PSMA2 (subunit of the human 20S proteasome) (human, UniProt P25787 1-234)
Assay: cryo-EM structure

Chain of PSMA2 (subunit of the human 20S proteasome) (P25787 whole entry): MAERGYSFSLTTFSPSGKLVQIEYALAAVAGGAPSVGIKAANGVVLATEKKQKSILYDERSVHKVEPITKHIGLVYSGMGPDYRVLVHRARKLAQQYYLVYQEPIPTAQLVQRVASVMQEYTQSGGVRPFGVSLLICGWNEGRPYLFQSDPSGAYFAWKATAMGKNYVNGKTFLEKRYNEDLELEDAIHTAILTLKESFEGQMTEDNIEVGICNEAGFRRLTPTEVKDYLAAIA

- binding result: binds
Binder: H-DNDDDLYG-OH [VCP C-terminal HbYX peptide H-DNDDDLYG-OH]
